From patent publication US20210180062

Question: Which results are given for “SynGAP β (isoform construct co-transfected in the small GTPase assay)”?
Answer: GAP activity (reduction of GTP-bound small G protein, pull-down with effector-domain beads) (Rac1): SynGAP β generally has highest GAP activity into all small G proteins among other isoforms; GAP activity (reduction of GTP-bound small G protein, pull-down with effector-domain beads) (Ras): SynGAP β generally has highest GAP activity into all small G proteins among other isoforms

Question: For “SynGAP α2 (isoform construct co-transfected in the small GTPase assay)”, which “GAP activity (reduction of GTP-bound small G protein, pull-down with effector-domain beads)” value (Ras) is on record?
Answer: The value was “SynGAP α1 and α2 has mild preference towards Ras rather than Rap”.

Question: How did the “GAP activity (reduction of GTP-bound small G protein, pull-down with effector-domain beads)” value (Rap1) turn out when “SynGAP γ (isoform construct co-transfected in the small GTPase assay)” was run?
Answer: Its value is “SynGAP β and γ has mild preference towards Rap1”.

Question: Which “GAP activity (reduction of GTP-bound small G protein, pull-down with effector-domain beads)” value (Ras) does the source give for “SynGAP α1 (isoform construct co-transfected in the small GTPase assay)” here?
Answer: Its value is “SynGAP α1 and α2 has mild preference towards Ras rather than Rap”.
